From paper PMC2742380 come the findings set out here.

“And” between values parts separate entries of the source, which are not always exact repeats. Equal values may be shown once.

Test [1] has as its target His6-PA: WT PA with a carboxy-terminal six histidine tag, 63-kDa form (Bacillus anthracis). Description: negative-stain electron microscopy.
Test [2] addresses Protective antigen (PA), wild type, 63-kDa portion of trypsin-nicked PA (Bacillus anthracis). Description: native MS.
For test [3] the target is unchanged. Description: negative-stain electron microscopy.

Chain of Protective antigen (PA), wild type, 63-kDa portion of trypsin-nicked PA (Bacillus anthracis) (P13423 197-764 limits assumed): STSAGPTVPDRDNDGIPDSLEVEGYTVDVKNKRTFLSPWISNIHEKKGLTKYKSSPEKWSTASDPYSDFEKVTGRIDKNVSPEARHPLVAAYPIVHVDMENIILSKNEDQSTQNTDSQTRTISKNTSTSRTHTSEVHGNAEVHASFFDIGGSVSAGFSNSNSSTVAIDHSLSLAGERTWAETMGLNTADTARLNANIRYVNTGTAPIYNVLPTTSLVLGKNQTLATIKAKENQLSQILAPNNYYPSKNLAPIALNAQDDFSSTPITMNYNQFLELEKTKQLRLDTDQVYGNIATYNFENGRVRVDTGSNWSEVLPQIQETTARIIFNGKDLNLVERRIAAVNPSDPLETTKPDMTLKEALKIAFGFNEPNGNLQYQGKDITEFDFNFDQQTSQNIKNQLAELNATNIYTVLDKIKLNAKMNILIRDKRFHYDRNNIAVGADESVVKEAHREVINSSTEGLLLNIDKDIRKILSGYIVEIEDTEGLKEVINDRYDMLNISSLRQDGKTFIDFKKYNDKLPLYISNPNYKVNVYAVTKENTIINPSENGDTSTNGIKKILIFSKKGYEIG

With “His6-PA: WT PA with a carboxy-terminal six histidine tag, 63-kDa form (domain or fragment)”, in test [1], the percent of oligomers that are heptamers is 74% and the percent of oligomers that are octamers was 26%.

On to “LFN, amino-terminal domain of lethal factor (LF residues 1-263) (domain or fragment)”, for which, in test [2], the stoichiometry N (LFN per PA heptamer) came to 2 and the stoichiometry N (LFN per PA tetramer) was 2.

Usually stoichiometry N stands for a count of units in the complex or per binding partner. Regarding “Protective antigen (PA), wild type, 63-kDa portion of trypsin-nicked PA (domain or fragment)”, the stoichiometry N in test [3] is 7 and 8.
